Laboratory results published in patent US20240101702A1 (PRECISION BIOLOGICS, published 2024).

Target: T1, CEACAM8 (human, UniProt P31997 35-320, limits assumed)
T1 sequence (looked up): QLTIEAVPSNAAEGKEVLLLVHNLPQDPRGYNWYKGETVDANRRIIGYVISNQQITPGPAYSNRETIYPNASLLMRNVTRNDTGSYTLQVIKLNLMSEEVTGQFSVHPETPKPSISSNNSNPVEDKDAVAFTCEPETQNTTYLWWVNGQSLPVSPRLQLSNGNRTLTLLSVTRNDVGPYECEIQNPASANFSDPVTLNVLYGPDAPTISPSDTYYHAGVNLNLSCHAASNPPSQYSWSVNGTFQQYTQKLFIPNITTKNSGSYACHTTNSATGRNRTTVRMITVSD
Assay: in vitro assays using human tumor cell lines (method not detailed)

B1: NEO-201 humanized IgG1 monoclonal antibody (antibody, V domains shown)
VH: QVQLVQSGAEVKKPGASVKVSCKASGYTFTDYAMHWVRQAPGQRLEWMGLISTYSGDTKYNQNFQGRVTMTVDKSASTAYMELSSLRSEDTAVYYCARGDYSGSRYWFAYWGQGTLVTVSS
VL: DIQMTQSPSSLSASVGDRVTITCQASENIYGALNWYQRKPGKSPKLLIYGASNLATGMPSRFSGSGSGTDYTFTISSLQPEDIATYYCQQVLSSPYTFGGGTKLEIKR
notes: also called h16C3; H16C3-Abb*
binding result: no binding
